The source of these data is PMC9023283.

This assay has as its target mature METTL8-Iso1 (Met1-Gln22 deleted) with a C-terminal His6 tag (human). The assay is described as follows: SEC.

In turn, “mature METTL8-Iso1 (Met1-Gln22 deleted) with a C-terminal His6 tag (enzyme)” came in with a stoichiometry N of 8.

One may read the stoichiometry N as the number of molecules, sites or subunits per partner or assembly.
